Data from US20070111259A1 (BIOSITE, published 2007).

T1: biotinylated interleukin 8 (IL8-biotin) (human, UniProt P10145 21-99, reacted with biotin-XX-NHS ester (1 mM); labelled residues not stated)
T1 construct: mature; also called IL-8 labeled with biotin; biotinylated IL-8
T1 sequence: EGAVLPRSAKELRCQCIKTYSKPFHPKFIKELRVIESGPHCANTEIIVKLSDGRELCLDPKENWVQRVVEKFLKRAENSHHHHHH


Assays:
[1] = molecular target: T1, biotinylated interleukin 8 (IL8-biotin); assay: fraction of Fab bound by a large excess of biotin-IL-8, removed on avidin magnetic latex
[2] = molecular target: T1, biotinylated interleukin 8 (IL8-biotin); assay: solution equilibrium with 1e-10 M biotin-IL-8, B/F vs B plot, free Fab by sandwich ELISA
Description: The equilibrium binding constants of individual monoclonal antibodies were determined by analysis of the total and free antibody concentrations after a binding equilibrium was established in the presence of biotinylated IL-8 at 10⁻¹⁰ M in a 1% solution of bovine serum albumin buffered at pH 8.0. […] The supernatant solution was removed from the microtiter wells containing the magnetic particles and the antibody concentration was determined. The concentration of total antibody added to the individual wells was determined by quantifying the antibody in a sample that was not mixed with IL-8. […] When determining the concentration of total antibody in an equilibrium mixture, the antibody concentration is the amount of total antibody in the mixture determined from the assay described below multiplied by the immunoreactive fraction. Similarly, when calculating the free antibody in an equilibrium mixture after the removal of IL-8, the non-immunoreactive fraction of antibody is subtracted from the free antibody concentration determined by the assay described below. The bound fraction, B, is determined by subtracting the free immunoreactive antibody concentration in the mixture, F, from the total immunoreactive antibody concentration in the mixture. […]

Binder	% Immunoreactive Protein [1] [%]	Ka [2] [M⁻¹]
M1-21 (Fab, also called M1_21H; M1_21L) heavy: QVQLVQSGGGVVQPGKSLRLSCAASGFTFSYYGMHWVRQVPGKGLEWVAAVWYDGSTTYSPDSVKGRFTISRDDSKNTLYLQMSSLRAEDTAVYYCARDRVGLFDYWGQGTLVTVSSASTKGPSVFPLAPSSKSTSGGTAALGCLVKDYFPEPVTVSWNSGALTSGVHTFPAVLQSSGLYSLSSVVTVPSSSLGTQTYICNVNHKPSNTKVDKKAEPKSHHHHHH light: not shown	67	6.6e+10
M1-10 (Fab, also called M1_10H; M1_10L) heavy: QVQLVQSGGGLVHPGGSLRLSCEGSGFIFRNHPIHWVRQAPGKGLEWVSVSGIGGDTYYADSVKGRFSISRDNAKNSLYLQMNSLRAEDMAVYYCAREYYYGSGSYRVDYYYYGMDVWGQGTTVTVSSASTKGPSVFPLAPSSKSTSGGTAALGCLVKDYFPEPVTVSWNSGALTSGVHTFPAVLQSSGLYSLSSVVTVPSSSLGTQTYICNVNHKPSNTKVDKKAEPKSHHHHHH light: not shown	90	
